Conditions in all cases: protein: recombinant; label: 32P-CTP; hairpin
For series [1], the target named is T1, hIRP1 (GST fusion) (human, UniProt P21399 1-889).
T1 sequence: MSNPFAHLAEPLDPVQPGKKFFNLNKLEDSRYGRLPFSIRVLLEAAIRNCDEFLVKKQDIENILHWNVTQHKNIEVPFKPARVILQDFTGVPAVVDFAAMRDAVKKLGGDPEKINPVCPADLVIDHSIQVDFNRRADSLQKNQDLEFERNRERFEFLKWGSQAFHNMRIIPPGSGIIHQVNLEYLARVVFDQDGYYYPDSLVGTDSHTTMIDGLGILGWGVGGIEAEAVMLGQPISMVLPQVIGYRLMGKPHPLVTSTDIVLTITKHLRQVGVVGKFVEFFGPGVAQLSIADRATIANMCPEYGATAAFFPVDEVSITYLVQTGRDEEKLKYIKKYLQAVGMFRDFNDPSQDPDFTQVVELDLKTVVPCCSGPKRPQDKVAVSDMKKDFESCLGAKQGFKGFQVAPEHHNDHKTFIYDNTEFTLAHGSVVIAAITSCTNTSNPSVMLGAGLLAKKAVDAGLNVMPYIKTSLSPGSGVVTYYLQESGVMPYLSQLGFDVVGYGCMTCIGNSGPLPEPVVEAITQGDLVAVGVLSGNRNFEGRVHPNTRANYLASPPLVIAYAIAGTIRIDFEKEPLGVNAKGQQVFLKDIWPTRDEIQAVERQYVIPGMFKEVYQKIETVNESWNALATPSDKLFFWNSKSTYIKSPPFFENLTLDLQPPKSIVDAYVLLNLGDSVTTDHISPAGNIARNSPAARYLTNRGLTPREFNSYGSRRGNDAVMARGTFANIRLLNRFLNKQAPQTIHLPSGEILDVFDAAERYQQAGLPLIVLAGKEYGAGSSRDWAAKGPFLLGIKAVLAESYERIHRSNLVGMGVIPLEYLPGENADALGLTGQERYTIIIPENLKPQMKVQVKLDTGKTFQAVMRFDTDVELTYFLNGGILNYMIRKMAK
The series is described as follows: EMSA; 240 ng hIRP1; also bound at 100 ng; approx. equal to ET1+2+3; 10 mM HEPES pH 7.6, 2 mM MgCl2, 40 mM KCl, 5% glycerol, 1 mM DTT, 20 uL, room temperature 30 min, then heparin 0.63 ug/uL 10 min; native PAGE (7%/14%) in 0.5x TBE. A general note: A gel shift assay detects complexes by their altered migration in electrophoresis.

Series [2] concerns the target T1, hIRP1 (GST fusion). The series is described as follows: EMSA; 2 mM Mg2+; 5.2 nM RNA; data not shown; 10 mM HEPES pH 7.6, 2 mM MgCl2, 40 mM KCl, 5% glycerol, 1 mM DTT, 20 uL, room temperature 30 min, […] (7%/14%) […].
In series [3] the target is T1, hIRP1 (GST fusion). The series is described as follows: EMSA; 240 ng hIRP1; 10 mM HEPES pH 7.6, 2 mM MgCl2, 40 mM KCl, 5% glycerol, 1 mM DTT, 20 uL, room temperature 30 min, […] (7%/14%) […].
The target of series [4] is T1, hIRP1 (GST fusion). The series is described as follows: EMSA; 240 ng hIRP1; 10 mM HEPES pH 7.6, 2 mM MgCl2, 40 mM KCl, 5% glycerol, 1 mM DTT, 20 uL, room temperature 30 min, then heparin 0.63 ug/uL 10 min; native PAGE (7%/14%) in 0.5x TBE.
The target of series [5] is T1, hIRP1 (GST fusion). The series is described as follows: EMSA; 2 mM Mg2+; 5.2 nM RNA; mean of 3 experiments; 10 mM HEPES pH 7.6, 2 mM MgCl2, 40 mM KCl, 5% glycerol, 1 mM DTT, 20 uL, room temperature 30 min, […] (7%/14%) […].

For the molecule GUUCGUCCUCAGUGCAGGGCAAC (structured_RNA) [eALAS IRE], the binding result with hIRP1 (GST fusion) [1] is on record as “binds”. Usually Kd stands for the equilibrium constant for the complex coming apart. For the molecule GACCGUGCCCGUGAGCACGUC (structured_RNA) [ET1+2+3], the Kd with hIRP1 (GST fusion) [2] was approximately 0.05 nM. Turning to GACCGUGCACCAUGAGCACGAAUC (structured_RNA) [HCV IRES dIV wild type], in the series with hIRP1 (GST fusion) [3], the binding result is “no binding”. For the molecule GACCGUGCACCGUGAGCACGAAUC (structured_RNA) [ET1], the binding result with hIRP1 (GST fusion) [3] is recorded as “no binding”.

For GUUCGUCCUGCUCCGAGGGCAAC (structured_RNA) [IRE (-) negative control], the binding result with hIRP1 (GST fusion) [4] is on record as “no binding”.

For the molecule GACCGUGCCCAUGAGCACGUC (structured_RNA) [ET2+3], the Kd with hIRP1 (GST fusion) [5] was 54 ± 13 nM.

These data come from publication PMC2649033, “Comparison between the HCV IRES domain IV RNA structure and the Iron Responsive Element”.
